From paper PMC5705280

Molecular target: Cul3 (Cullin3) (UniProt Q9JLV5)
Assay: co-IP
Conditions: reference: PHLPP2 wild type; sites S1119,S1210

Substance: PHLPP2 (from UniProt Q6ZVD8) PHLPP2-2A (S1119A/S1210A)
- binding against the reference: weaker
